Legend:
[1] = target: T1, rhesus recombinant CD70 (FLAG-TNC-rhesus CD70) (rhesus macaque (Macaca mulatta), UniProt F7GPA5 174-316); assay: CD27-CD70 inhibition ELISA, rhesus Flag-TNC-CD70
T1 construct: also called rhesus Flag-TNC-CD70; Rhesus monkey; not shown: Flag tag and TNC trimerisation domain
T1 sequence: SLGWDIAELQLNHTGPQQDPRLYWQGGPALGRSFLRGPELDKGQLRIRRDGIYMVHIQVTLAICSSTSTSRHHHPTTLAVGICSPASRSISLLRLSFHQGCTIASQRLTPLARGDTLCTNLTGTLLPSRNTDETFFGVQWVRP
Procedure: In this assay, a microtiter plate (Nunc Maxisorb) was first coated with 100 µl anti-FLAG M2 monoclonal antibody (Sigma Aldrich, F3165) at 1250-fold dilution in PBS (to achieve a final concentration of approximately 3.5 µg/ml) overnight at 4° C. The plate was washed once with PBS-Tween and incubated at RT for 2 hours with 300 µl PBS-1% casein. The plate was washed a further three times with PBS-Tween. 100 µl of 5 ng/ml (80 pM) Flag-TNC-CD70 (The Journal of Immunology, 2009, 183: 1851-1861) diluted in PBS-0.1% casein was added to the plate and incubated at RT for 1 hour while shaking. The plate was washed five times with PBS-Tween. The CD70 mAb to be tested was added to the plate; various concentrations were achieved by diluting the stock antibody solution in PBS-0.1% casein. Immediately thereafter, 50 µl of 1 µg/ml (final concentration 6.5 nM) recombinant human CD27 Fc chimera (R&D systems 382-CD, MW = 46.5 kDa) was added, and incubated at RT for 1 hour while shaking. The plate was washed five times with PBS Tween. 100 µl of biotinylated anti-CD27 (eBioscience 13-0271), diluted 500-fold in PBS-0.1% casein, was added, and the plate incubated at RT for a further hour, while shaking. The plate was washed five times with PBS Tween. […] 100 µl TMB was added to the plate and the OD at 620 nm was measured. […]

[2] = target: cynomolgus monkey Flag-TNC-CD70 (cynomolgus monkey); assay: CD27-CD70 inhibition ELISA, cynomolgus Flag-TNC-CD70
[3] = target: T2, human CD70 on the surface of cells (human, UniProt P32970 1-193); assay: cell-based or functional assay
T2 sequence (looked up): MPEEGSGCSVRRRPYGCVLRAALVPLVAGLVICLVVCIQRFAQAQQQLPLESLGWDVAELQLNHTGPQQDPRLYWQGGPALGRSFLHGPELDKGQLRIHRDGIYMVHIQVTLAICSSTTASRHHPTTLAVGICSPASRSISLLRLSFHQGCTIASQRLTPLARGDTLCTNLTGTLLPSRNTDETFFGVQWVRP

[4] = target: T1, rhesus recombinant CD70 …; assay: inhibition ELISA: CD27 binding to FLAG-TNC-rhesus CD70
Text: In this assay, Flag-TNC-CD70 is captured by an anti-Flag mAb and binding of CD27-Fc is detected via a biotinylated anti-CD27 mAb and strep-HRP in the absence or presence of CD70 Fabs (FIGS. 2 and 3) or CD70 mAbs (FIG. 4). In FIG. 2B it can be seen that 27B3, which has an identical VH as 9D1, but contains a somewhat different light chain, seems to block binding of CD27 to CD70 more efficiently, which was in line with the better off rate of this Fab as measured on Biacore (data not shown). Table 3 indicates the blocking potency (expressed as IC50) for the various llama-human chimeric mAbs tested in the CD70 inhibition ELISA. […] FIG. 3 is a composite of an experiment testing llama CD70 Fabs for blocking activity (in the inhibition ELISA, see white bars) and for CD70 binding (binding ELISA, black bars). For the binding ELISA, Flag-TNC-CD70 is captured by an anti-Flag mAb and binding of the Fabs is detected using an anti-myc-HRP mAb, which recognizes the MYC tag fused to the C-terminus of the Fd fragment. For comparison purposes, known monoclonal antibodies to CD70 (SGN70 described in US 2010/0129362 A1, clone 1F6; and MDX69A7 described in WO2008/074004FIGS. 5A and 5B) were tested in parallel. […] Of interest is clone 59D10, which as Fab has no blocking activity, but when converted into a chimeric IgG was antagonistic (see Table 3). […]

[5] = target: T1, rhesus recombinant CD70 …; assay: Biacore off-rate, Fab over immobilised rhesus CD70
[6] = target: T3, recombinant human CD70 (Flag-TNC-CD70) (human, UniProt P32970 39-193); assay: blocking ELISA of Example 19: CD27 Fc chimera on anti-Flag-captured Flag-TNC-CD70
T3 construct: extracellular domain; also called recombinant CD70; human Flag-TNC-CD70; not shown: Flag tag and TNC trimerisation domain
T3 sequence (looked up): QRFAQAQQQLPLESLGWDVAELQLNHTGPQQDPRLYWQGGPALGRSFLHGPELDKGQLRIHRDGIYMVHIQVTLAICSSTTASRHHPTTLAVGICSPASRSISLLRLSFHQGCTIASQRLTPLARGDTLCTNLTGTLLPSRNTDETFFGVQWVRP

[7] = target: T3, recombinant human CD70 (Flag-TNC-CD70); assay: inhibition ELISA: CD27-Fc binding to anti-Flag-captured Flag-TNC-CD70
Procedure: From selected phage transfected into TG1, individual colonies were picked randomly for growth in 96 well plates. After IPTG induction according to standard protocols periplasmic fractions (peris) containing Fabs were prepared. […] In this assay, Flag-TNC-CD70 is captured by an anti-Flag mAb and binding of CD27-Fc is detected via a biotinylated anti-CD27 mAb and strep-HRP in the absence or presence of CD70 Fabs (FIGS. 2 and 3) or CD70 mAbs (FIG. 4). In FIG. 2B it can be seen that 27B3, which has an identical VH as 9D1, but contains a somewhat different light chain, seems to block binding of CD27 to CD70 more efficiently, which was in line with the better off rate of this Fab as measured on Biacore (data not shown). Table 3 indicates the blocking potency (expressed as IC50) for the various llama-human chimeric mAbs tested in the CD70 inhibition ELISA. […] FIG. 3 is a composite of an experiment testing llama CD70 Fabs for blocking activity (in the inhibition ELISA, see white bars) and for CD70 binding (binding ELISA, black bars). For the binding ELISA, Flag-TNC-CD70 is captured by an anti-Flag mAb and binding of the Fabs is detected using an anti-myc-HRP mAb, which recognizes the MYC tag fused to the C-terminus of the Fd fragment. […]

[8] = target: T3, recombinant human CD70 (Flag-TNC-CD70); assay: CD27-CD70 inhibition ELISA, human Flag-TNC-CD70
[9] = target: T4, rhesus recombinant CD70 (FLAG-TNC-rhesus CD70) (rhesus macaque (Macaca mulatta)) (UniProt F7GPA5); assay: CD27-CD70 inhibition ELISA, rhesus Flag-TNC-CD70
T4 sequence: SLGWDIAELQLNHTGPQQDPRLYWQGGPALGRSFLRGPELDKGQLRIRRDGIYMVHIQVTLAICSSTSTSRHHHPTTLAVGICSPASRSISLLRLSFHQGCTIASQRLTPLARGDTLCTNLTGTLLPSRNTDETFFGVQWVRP

B1: ARGX-110 (non-fucosylated human IgG1 of germlined 27B3 clone 41D12) (antibody, V domains shown)
VH: EVQLVESGGGLVQPGGSLRLSCAASGFTFSVYYMNWVRQAPGKGLEWVSDINNEGGTTYYADSVKGRFTISRDNSKNSLYLQMNSLRAEDTAVYYCARDAGYSNHVPIFDSWGQGTLVTVSS
VL: QAVVTQEPSLTVSPGGTVTLTCGLKSGSVTSDNFPTWYQQTPGQAPRLLIYNTNTRHSGVPDRFSGSILGNKAALTITGAQADDEAEYFCALFISNPSVEFGGGTQLTVLG
notes: also called ARGX-100; 41D12 (ARGX-110)
Q: What does the source list for B1?
A: IC50 [1]: 0.075 µg/mL; IC50 [2]: 0.048 µg/mL

B2: 27B3 chimeric llama-human mAb (antibody, V domains shown)
VH: EVQLVESGGGLVQPGGSLRLSCAASGFTFSVYYMNWVRQAPGKGLEWVSDINNEGGTTYYADSVKGRFTISRDNAKNTLTLQMNSLKPEDTALYYCVRDAGYSNHVPIFDSWGQGTQVIVAS
VL: QAVVTQEPSLTVSPGGTVTLTCGLKSGSVTSTNFPTWYQQTPGQAPRLLIYNTNTRHSGVPSRFSGSISENKAALTITGAQPEDEAEYFCALFISNPSVEFGGGTQLTVLS
notes: also called SIMPLE antibody 27B3; mAb 27B3
Q: Which “Raji co-culture assay IC50 relative to 27B3” value [3] does the source give for B2 here?
A: Its value is 1 fold relative to 27B3.

Q: What about the IC50 [4] of the same binder?
A: The IC50 was 0.15 µg/mL.

B3: 59D10 Fab (Fab, V domains shown)
VH: EVQLVESGGGLVQPGGSLRLSCAASELSFSISEMTWVRQAPGKGLEWVSGISGVTGGSSTSYADSVKGRFTISRDNDKNTLYLQMNSLIPEDTAVYYCATTSGTYYFIPEYEYWGQGTQVTVSS
VL: QSVLTQPPSVSGSPGKTVTISCAGTSSDVGYGYYVSWYQQFPGMAPKLLIYDVNKRASGIADRFSGSKAGNTASLTISGLQSEDEADYYCASYRSSANAVFGGGTHLTVLG
notes: Llama-derived Fab from phage display; MYC tag at C-terminus of Fd
Q: Does B3 bind [5]?
A: Result: no binding

B4: 57B6 chimeric llama-human mAb (antibody, V domains shown)
VH: QLQLVESGGGLVQPGGSLRLSCAASGFSFSHYAMSWVRQAPGKGLEWVSGDNTYDGGTRYQDSVKGRFTISRDNGKNTLYLQMNSLKPEDTAVYYCAKDTGRGIMGEYGMDYWGKGTLVTVSS
VL: QTVVTQEPSLSVSPGGTVTLTCGLKSGSVTSSNYPAWYQQTPGQAPRLLIYNTNSRHSGVPSRFSGSISGNKAALTITGAQPEDEADYYCALYMGSGSANAMFGGGTHLTVLG
Q: With B4 as the binder, how does the IC50 [4] read?
A: Its IC50 is 0.135 µg/mL.

B5: SGN70 mAb (antibody, INN chains, looked up, V domains shown)
VH: QVQLVQSGAEVKKPGASVKVSCKASGYTFTNYGMNWVRQAPGQGLKWMGWINTYTGEPTYADAFKGRVTMTRDTSISTAYMELSRLRSDDTAVYYCARDYGDYGMDYWGQGTTVTVSS
VL: DIVMTQSPDSLAVSLGERATINCRASKSVSTSGYSFMHWYQQKPGQPPKLLIYLASNLESGVPDRFSGSGSGTDFTLTISSLQAEDVAVYYCQHSREVPWTFGQGTKVEIK
Q: With B5 as the binder, how does the IC50 [6] read?
A: Its IC50 is 4.97 µg/mL.

Q: And the IC50 of IL-8 secretion, Raji / HT1080-CD27 co-culture [3]?
A: The IC50 of IL-8 secretion, Raji / HT1080-CD27 co-culture was 0.055 µg/mL.

Q: What about the IC50 [7] of the same binder?
A: The IC50 was 0.33 µg/mL.

Q: And the IC50 [8]?
A: Its IC50 is 0.054 µg/mL.

Q: What about the IC50 [9] of the same binder?
A: The IC50 was 0.178 µg/mL.

Q: And the IC50 [2]?
A: The IC50 was 0.112 µg/mL.

From patent US20230265201A1 (published 2023)
